Assay results from paper PMC3526297.

Molecular target: GST-Rev3 (S. cerevisiae) (UniProt P14284)
Experiment: affinity co-purification of the polymerase from yeast

UniProt P14284, sequence (P14284 whole entry): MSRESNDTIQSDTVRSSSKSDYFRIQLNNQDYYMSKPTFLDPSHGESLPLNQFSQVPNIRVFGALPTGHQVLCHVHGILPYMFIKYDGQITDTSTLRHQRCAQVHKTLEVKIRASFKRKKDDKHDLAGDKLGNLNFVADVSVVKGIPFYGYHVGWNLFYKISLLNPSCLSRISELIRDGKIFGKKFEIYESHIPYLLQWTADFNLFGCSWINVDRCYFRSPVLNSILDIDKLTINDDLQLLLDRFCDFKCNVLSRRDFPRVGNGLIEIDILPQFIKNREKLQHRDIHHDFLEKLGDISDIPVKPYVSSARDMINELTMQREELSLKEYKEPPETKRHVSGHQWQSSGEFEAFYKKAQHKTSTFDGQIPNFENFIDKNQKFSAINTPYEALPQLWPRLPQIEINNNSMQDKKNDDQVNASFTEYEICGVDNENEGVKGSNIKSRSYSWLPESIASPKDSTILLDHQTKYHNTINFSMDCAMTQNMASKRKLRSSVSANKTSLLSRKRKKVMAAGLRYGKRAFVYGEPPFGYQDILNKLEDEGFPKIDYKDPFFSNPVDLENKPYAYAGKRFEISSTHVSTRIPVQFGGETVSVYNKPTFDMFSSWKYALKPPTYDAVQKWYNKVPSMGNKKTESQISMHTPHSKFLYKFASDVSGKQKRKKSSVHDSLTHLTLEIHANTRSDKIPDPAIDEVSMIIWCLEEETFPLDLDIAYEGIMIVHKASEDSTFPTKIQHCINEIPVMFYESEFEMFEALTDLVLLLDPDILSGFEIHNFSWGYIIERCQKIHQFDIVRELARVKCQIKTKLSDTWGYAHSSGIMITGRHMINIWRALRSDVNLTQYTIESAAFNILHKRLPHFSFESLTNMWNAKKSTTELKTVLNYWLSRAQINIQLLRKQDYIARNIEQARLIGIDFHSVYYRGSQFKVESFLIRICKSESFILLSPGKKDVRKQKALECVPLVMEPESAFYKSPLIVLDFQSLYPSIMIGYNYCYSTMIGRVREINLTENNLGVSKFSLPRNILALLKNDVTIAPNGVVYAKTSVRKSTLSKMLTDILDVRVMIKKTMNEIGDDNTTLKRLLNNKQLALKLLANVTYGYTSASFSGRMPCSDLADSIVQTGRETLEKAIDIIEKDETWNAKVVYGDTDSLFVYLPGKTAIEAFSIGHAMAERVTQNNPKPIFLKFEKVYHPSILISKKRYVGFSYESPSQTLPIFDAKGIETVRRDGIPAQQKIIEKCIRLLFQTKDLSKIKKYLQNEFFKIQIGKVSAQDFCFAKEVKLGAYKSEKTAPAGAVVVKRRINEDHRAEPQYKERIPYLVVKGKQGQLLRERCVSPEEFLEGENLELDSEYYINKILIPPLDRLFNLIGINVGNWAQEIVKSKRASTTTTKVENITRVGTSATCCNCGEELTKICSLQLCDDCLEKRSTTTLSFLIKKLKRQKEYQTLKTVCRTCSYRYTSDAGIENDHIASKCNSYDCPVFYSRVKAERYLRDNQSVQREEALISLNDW

Pol32 with an N-terminal His7 tag (from UniProt P47110 1-350) (natural protein)
stoichiometry of the complex after Ni-chelate chromatography (percent): 100%
